Residue numbers refer to the chain shown, from its start.
Assays:
[1] = target: human serum albumin (HSA) (human); assay: phage supernatant ELISA, albumin coated
[2] = target: mouse serum albumin (mSA) (mouse); assay: phage supernatant ELISA, albumin coated
[3] = target: T1, monkey serum albumin (CySA) (monkey); assay: phage supernatant ELISA, albumin coated
T1 chain: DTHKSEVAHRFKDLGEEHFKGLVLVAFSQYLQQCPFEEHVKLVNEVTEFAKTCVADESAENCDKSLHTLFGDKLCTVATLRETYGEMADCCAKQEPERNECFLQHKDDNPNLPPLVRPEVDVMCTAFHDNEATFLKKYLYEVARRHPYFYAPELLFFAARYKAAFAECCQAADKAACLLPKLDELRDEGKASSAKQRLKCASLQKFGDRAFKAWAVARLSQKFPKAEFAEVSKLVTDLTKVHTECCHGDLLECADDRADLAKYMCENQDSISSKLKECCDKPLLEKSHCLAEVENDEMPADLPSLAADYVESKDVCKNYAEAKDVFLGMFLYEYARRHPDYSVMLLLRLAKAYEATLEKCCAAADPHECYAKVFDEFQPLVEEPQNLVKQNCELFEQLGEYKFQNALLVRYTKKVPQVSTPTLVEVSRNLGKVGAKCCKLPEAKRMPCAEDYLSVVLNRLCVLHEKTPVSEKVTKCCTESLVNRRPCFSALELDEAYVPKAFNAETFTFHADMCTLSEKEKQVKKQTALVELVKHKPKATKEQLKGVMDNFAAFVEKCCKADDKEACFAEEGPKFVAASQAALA

rat serum albumin [4] = target: T2, rat serum albumin (rat); assay: SPR Biacore T200, fusion protein captured by anti-VHH antibody, albumin as analyte
T2 chain: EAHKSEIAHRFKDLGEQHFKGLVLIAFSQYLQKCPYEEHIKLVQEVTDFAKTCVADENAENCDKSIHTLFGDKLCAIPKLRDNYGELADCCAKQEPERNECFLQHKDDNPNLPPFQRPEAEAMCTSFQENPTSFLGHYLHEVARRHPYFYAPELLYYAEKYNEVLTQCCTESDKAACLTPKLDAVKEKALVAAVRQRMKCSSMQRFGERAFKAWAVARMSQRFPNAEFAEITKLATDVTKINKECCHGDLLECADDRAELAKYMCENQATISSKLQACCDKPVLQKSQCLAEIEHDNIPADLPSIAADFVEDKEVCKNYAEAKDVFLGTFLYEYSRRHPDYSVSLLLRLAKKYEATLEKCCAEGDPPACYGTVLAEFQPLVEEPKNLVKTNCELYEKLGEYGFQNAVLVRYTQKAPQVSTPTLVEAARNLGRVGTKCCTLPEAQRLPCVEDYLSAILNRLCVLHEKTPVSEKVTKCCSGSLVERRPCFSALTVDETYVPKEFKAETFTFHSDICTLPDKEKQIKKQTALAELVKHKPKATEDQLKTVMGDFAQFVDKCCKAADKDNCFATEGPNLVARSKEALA
Procedure: (§1) Coupling of an anti-VHH antibody (MonoRab™ Rabbit Anti-Camelid VHH Cocktail, Genescript, Cat No. A02014) to an S series CM5 sensor chip (GE, Cat No. 29-1049-88) was performed using an amino coupling kit (GE, Cat No. BR-1000-50). The antibody was diluted to 10 μg/mL with 10 mM sodium acetate (pH 4.5) (GE, Cat No. BR-1003-50). After the CM5 chip was activated with EDC/NHS, the diluted anti-VHH antibody was flowed over the chip to reach a surface response value of about 5000 RU, and then the chip was blocked with ethanolamine for later use.
(§2) The albumin from each species was serially diluted in a gradient with 1XHBS-EP (10 mM HEPES, pH 7.4, 150 mM NaCl, 3 mM EDTA, 0.05% Surfactant P20). The test fusion protein molecule was captured using the anti-VHH antibody-coupled chip, with a response value of about 30 RU. Then, different concentrations of serum albumin were flowed over the surface of the chip for 3 min at a flow rate of 50 μL/min, with a dissociation time of 1-10 min (the dissociation time varied depending on the species of albumin). After the end of each cycle, the chip was regenerated using 10 mM glycine-hydrochloric acid (pH 1.5) (GE, Cat No. BR-1003-54). The reaction signals were detected in real-time using Biacore T200 (GE) to obtain the association and dissociation curves, and the data obtained were fitted with a Langmuir 1:1 binding model using the BIAevaluation version 4.1 software at appropriate concentration points to obtain the affinity values.

[5] = target: human serum albumin (HSA) (human); assay: as above
Procedure: as §1, §2

rat serum albumin [6] = target: T2, rat serum albumin; assay: SPR Biacore T200, albumin amine-coupled, fusion protein as analyte
Procedure: (§3) Coupling of serum albumins from different species to an S series CM5 sensor chip (GE, Cat. 29-1049-88) was performed using an amino coupling kit (GE, Cat No. BR-1000-50). The albumin from each species was diluted to 2 μg/mL. After the CM5 chip was activated with EDC/NHS, the diluted albumin was flowed over the chip to reach a surface response value of about 200 (180 to 230) RU, and then the chip was blocked with ethanolamine. The blank control channel also needed to be activated with EDC/NHS and blocked with ethanolamine. […] The samples of 0051 and 0054 at different concentrations were separately flowed through the albumin-coupled and blank channels for 3 min at a flow rate of 50 μL/min, with a dissociation time of 4 min. After the end of each cycle, the chip was regenerated using 10 mM glycine-hydrochloric acid (pH 1.5) (GE, Cat. #BR-1003-54). The reaction signals were detected in real-time using Biacore T200 (GE) to obtain the association and dissociation curves, and the data obtained were fitted with a Langmuir 1:1 binding model using the BIAevaluation version 4.1 software at appropriate concentration points to obtain the affinity values.

[7] = target: human serum albumin (HSA) (human); assay: as above
Procedure: as §3

[8] = target: mouse serum albumin (mSA) (mouse); assay: as above
Procedure: as §3

human RXFP1 receptor = target: T3, human RXFP1 receptor (human, UniProt Q9HBX9 1-757); assay: cell-based or functional assay
T3 sequence (looked up): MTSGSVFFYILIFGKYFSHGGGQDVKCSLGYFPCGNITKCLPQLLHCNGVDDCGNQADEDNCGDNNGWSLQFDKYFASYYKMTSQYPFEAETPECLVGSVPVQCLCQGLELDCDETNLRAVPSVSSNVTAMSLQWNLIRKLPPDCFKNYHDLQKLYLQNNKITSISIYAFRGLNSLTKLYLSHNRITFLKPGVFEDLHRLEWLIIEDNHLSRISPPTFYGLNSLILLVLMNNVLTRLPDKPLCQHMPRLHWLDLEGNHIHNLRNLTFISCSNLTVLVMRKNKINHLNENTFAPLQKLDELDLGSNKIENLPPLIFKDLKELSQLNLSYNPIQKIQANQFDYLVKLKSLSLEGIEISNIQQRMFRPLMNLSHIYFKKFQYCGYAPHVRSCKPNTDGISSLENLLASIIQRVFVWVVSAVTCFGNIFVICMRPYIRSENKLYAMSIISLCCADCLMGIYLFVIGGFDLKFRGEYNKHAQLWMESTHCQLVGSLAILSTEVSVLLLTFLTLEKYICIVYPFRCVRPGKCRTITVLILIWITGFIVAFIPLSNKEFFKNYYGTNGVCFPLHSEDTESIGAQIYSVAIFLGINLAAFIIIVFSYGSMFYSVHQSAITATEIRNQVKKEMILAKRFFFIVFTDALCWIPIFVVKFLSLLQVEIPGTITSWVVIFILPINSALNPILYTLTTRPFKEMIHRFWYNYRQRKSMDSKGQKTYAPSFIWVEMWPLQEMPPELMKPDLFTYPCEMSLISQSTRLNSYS

B1: #7aHSA (VHH)
VHH: HVQLVESGGGSVQAGGSLRVSCVASGNTYLTSCMGWFRQAPGKEREGVASIYTVGGSTFYTNSVKGRFTISRDNAKNTVYLQMNSLQPEDTAMYYCAAGSPARCRLRDPTTFDYWGQGTQVTVSS
notes: also called clone #7
B1 was tested, and the OD450 [1] was 1.69 OD450, the OD450 [2] was 1.12 OD450 and the OD450 [3] was 1.75 OD450.

B2: 0054 (other)
chain: EVQLLESGGGLVQPGGSLRLSCAASGRYIDETAVAWFRQAPGKGREFVAGIGGGVDITYYADSVKGRFTISRDNSKNTLYLQMNSLRPEDTAVYYCAARPGRPLITSKVADLYPYWGQGTLVTVSSGGGGQGGGGQGGGGQGGGGQGGGGQSWMEEVIKLCGRELVRAQIAICGMSTWSGGGSGGSGGGQLYSALANKCCHVGCTKRSLARFC
notes: also called positive control 0054; positive control molecule 0054
Binder B2 has a Kd (rat serum albumin [4]) of 183 nM, a koff (rat serum albumin [4]) of 0.0113 s⁻¹ and a kon (rat serum albumin [4]) of 61500 M⁻¹ s⁻¹. For the same binder, the Kd [5] was 15.8 nM, the koff [5] was 0.000563 s⁻¹ and the kon [5] was 35700 M⁻¹ s⁻¹. It also gave a Kd (rat serum albumin [6]) of 1.06 nM, a koff (rat serum albumin [6]) of 0.00246 s⁻¹ and a kon (rat serum albumin [6]) of 2.31e+06 M⁻¹ s⁻¹. It also gave a Kd [7] of 0.099 nM, a koff [7] of 0.000181 s⁻¹ and a kon [7] of 1.83e+06 M⁻¹ s⁻¹. The Kd [8] was 1.37 nM, the koff [8] was 0.0027 s⁻¹ and the kon [8] was 1.97e+06 M⁻¹ s⁻¹.

B3: 0052 (other)
chain: EVQLLESGGGLVQPGGSLRLSCAASGFTFLTSCMGWFRQAPGKEREGVSSIYTVGGSTFYTNSVKGRFTISRDNSKNTLYLQMNSLRAEDTAVYYCAAGSPARCRLRDPTTFDYWGQGTLVTVSSPGPAPGPAPGPAPGPAPGPAPGPAPGPAPGPASWMEEVIKLCGRELVRAQIAICGMSTWSGGGSGGSGGGQLYSALANKCCHVGCTKRSLARFC
notes: Single-chain fusion: anti-HSA VHH, linker, relaxin-2 B chain, linker, relaxin-2 A chain; also called fusion protein 0052
B3 gave a Kd (rat serum albumin [4]) of 145 nM, a koff (rat serum albumin [4]) of 0.00599 s⁻¹ and a kon (rat serum albumin [4]) of 41300 M⁻¹ s⁻¹. For the same binder, the Kd [5] was 9.65 nM, the koff [5] was 0.000867 s⁻¹ and the kon [5] was 89900 M⁻¹ s⁻¹. For the same binder, the “EC50 (nM), cAMP production in THP1 cells, 1% HSA” value (from here on “EC50 (nM) … 1% HSA”) (human RXFP1 receptor) was 21.5 nM and the “EC50 (nM), cAMP production in THP1 cells, without HSA” value (shortened to “EC50 (nM) … without HSA”) (human RXFP1 receptor) was 5.22 nM.

B4: #9aHSA (VHH)
VHH: DVQLVESGGGSVQAGGSLRLSCAAAEYTYLNSCLGWFRQAPGKEREGVATIYMVGGSTFYADSVKGRFTISRDNAKNTVYLMMNSLKPEDTAMYYCAAGSPARCLRRDPTTFNYWGQGTQVTVSS
notes: also called clone #9
With B4 the OD450 [1] was 1.52 OD450, the OD450 [2] was 1.09 OD450 and the OD450 [3] was 1.82 OD450.

B5: 0065 (other)
chain: EVQLLESGGGLVQPGGSLRLSCAASGFTFLTSCMGWFRQAPGKEREGVSSIYTVGGSTFYTNSVKGRFTISRDNSKNTLYLQMNSLRPEDTAVYYCAAGSPARCRLRDPTTFDYWGQGTLVTVSSGGGGQGGGGQGGGGQGGGGQGGGGQSWMEEVIKLCGRELVRAQIAICGMSTWSGGGSGGSGGGQLYSALANKCCHVGCTKRSLARFC
notes: Single-chain fusion: anti-HSA VHH, linker, relaxin-2 B chain, linker, relaxin-2 A chain; also called fusion protein 0065
For B5, the Kd (rat serum albumin [4]) was 159 nM, the koff (rat serum albumin [4]) was 0.00567 s⁻¹ and the kon (rat serum albumin [4]) was 35700 M⁻¹ s⁻¹. The Kd [5] was 9.68 nM, the koff [5] was 0.000797 s⁻¹ and the kon [5] was 82300 M⁻¹ s⁻¹. The “EC50 (nM) … 1% HSA” value (human RXFP1 receptor) was 23 nM and the “EC50 (nM) … without HSA” value (human RXFP1 receptor) was 2.08 nM.

B6: 0064 (other)
chain: B5 chain with F27N, F29Y, R87Q
notes: Single-chain fusion: anti-HSA VHH, linker, relaxin-2 B chain, linker, relaxin-2 A chain; also called fusion protein 0064
Binder B6 has a Kd (rat serum albumin [4]) of 58.5 nM, a koff (rat serum albumin [4]) of 0.00579 s⁻¹ and a kon (rat serum albumin [4]) of 98900 M⁻¹ s⁻¹. For the same binder, the Kd [5] was 5.59 nM, the koff [5] was 0.00086 s⁻¹ and the kon [5] was 154000 M⁻¹ s⁻¹. The “EC50 (nM) … 1% HSA” value (human RXFP1 receptor) was 19.8 nM and the “EC50 (nM) … without HSA” value (human RXFP1 receptor) was 8.5 nM.

— patent US20250312444A1 (BEIJING TUO JIE BIOPHARMACEUTICAL, published 2025)
